Data as given in patent publication US20250002610A1 (Genmab, published 2025).

T1: FcγRIIa-H131 (CD32A Protein, Human, Recombinant (167 His, His Tag)) (human, UniProt P12318 34-218, limits assumed)
T1 construct: Bought reagent; not shown: His tag
T1 sequence (looked up): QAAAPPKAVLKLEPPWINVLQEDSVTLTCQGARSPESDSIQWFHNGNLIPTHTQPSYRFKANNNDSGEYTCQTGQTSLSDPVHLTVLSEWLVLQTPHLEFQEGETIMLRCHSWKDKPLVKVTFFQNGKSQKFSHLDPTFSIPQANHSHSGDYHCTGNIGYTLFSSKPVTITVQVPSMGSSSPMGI

T2: cynomolgus monkey DR4 with death domain deletion on ExpiCHO-S cells (cynomolgus monkey (Macaca fascicularis))
T2 construct: also called cynomolgus DR4
T2 chain: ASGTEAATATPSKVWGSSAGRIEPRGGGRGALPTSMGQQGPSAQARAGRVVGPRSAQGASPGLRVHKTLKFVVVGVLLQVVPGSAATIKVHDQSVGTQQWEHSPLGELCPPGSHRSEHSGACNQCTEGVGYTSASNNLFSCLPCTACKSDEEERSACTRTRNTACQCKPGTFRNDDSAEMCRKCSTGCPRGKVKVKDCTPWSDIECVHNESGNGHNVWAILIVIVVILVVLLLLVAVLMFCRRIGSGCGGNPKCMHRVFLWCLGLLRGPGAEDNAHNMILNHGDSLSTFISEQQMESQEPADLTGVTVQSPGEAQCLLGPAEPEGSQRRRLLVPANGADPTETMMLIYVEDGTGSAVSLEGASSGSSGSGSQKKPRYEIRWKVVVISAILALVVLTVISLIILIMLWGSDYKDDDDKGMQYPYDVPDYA

B1: IgG1-b12 (antibody)
heavy: not shown
light: EIVLTQSPGTLSLSPGERATFSCRSSHSIRSRRVAWYQHKPGQAPRLVIHGVSNRASGISDRFSGSGSGTDFTLTITRVEPEDFALYYCQVYGASSYTFGQGTKLERKRTVAAPSVFIFPPSDEQLKSGTASVVCLLNNFYPREAKVQWKVDNALQSGNSQESVTEQDSKDSTYSLSSTLTLSKADYEKHKVYACEVTHQGLSSPVTKSFNRGEC
notes: HIV gp120 antibody b12 with wild-type IgG1 Fc; also called IgG-b12
B2: IgG1-DR4-FERR (antibody, V domains shown)
VH: QVQLQESGPGLVKPSGTLSLTCAVSGGSISSYSWWSWIRQPPGKGLEWIGELYHSGSTNYNPSLKSRVTISVDKSKNQFSLKLRSVTAADTAVYYCVRGVATIDYWGQGTLVTVSS
VL: QSALTQPPSASGSPGQSVTISCTGTSSDVGGYNFVSWYQQDPGKAPKLLIYEVTKRPSGVPDRFSGSKSGNTASLTVSGLQAEDEADYYCSSYAGSNNVMFGGGTKLTVLG
notes: Bivalent monoclonal IgG1 lambda

Columns and labels:
[1] = molecular target: T1, FcγRIIa-H131 (CD32A Protein, Human, …); assay: SPR (Biacore 8K), His-tagged FcγRIIa-H131 captured on an anti-His chip, antibody as analyte, endpoint response against concentration
Protocol: Binding of BisG1-FAPα-FERL/DR4-FERR to immobilized human His-tagged FcγRs and FcRn was analyzed by SPR using a Biacore 8K SPR system (Cytiva). To this end, anti-His antibodies were covalently immobilized on the surface of Biacore Series S Sensor Chip CM5 (Cytiva, Cat. #29104988) using the Amine Coupling Kit (Cytiva, Cat. #BR100050) and a His Capture Kit (Cytiva, Cat. #29234602) according to the manufacturer's instructions. To assess antibody binding to immobilized human FcγRs, aliquots of the recombinant His-tagged FcγR proteins (Table 24) were diluted in HBS EP+Buffer pH 7.4 (Cytiva, Cat. #BR100669) and used to capture the FcγR proteins on the surface of the anti-His antibody-coated sensors using a flow rate of 10 μL/min and a contact time of 60 s. Captured levels ranged from 434 to 592 RU. After three start-up cycles of HBS-EP+Buffer, concentration ranges of BisG1-FAPα-FERL/DR4-FERR or IgG1-b12 antibodies (Table 25) were injected to generate binding curves on FcγR-captured sensors (active surface). For each antibody sample, a parallel flow cell without captured FcγRs was included (reference surface), which was used for RU background correction.
All sensorgrams were subtracted by the signal of the third start-up cycle with buffer only (mock analyte). […]

[2] = molecular target: T2, cynomolgus monkey DR4 with death domain …; assay: flow cytometry, ExpiCHO-S cells expressing cynomolgus monkey DR4, average ± SEM
Protocol: Binding of BisG1-FAPα-FERL/DR4-FERR, BisG1-DR4-FEAL/b12-FEAR and IgG1-DR4-FERR to DR4 of various species commonly used for nonclinical toxicology studies was assessed by flow cytometry using ExpiCHO-S cells transiently expressing DR4 from different animal species. In contrast to other species, rodents only express one DR which has highest homology with human DR5. Therefore, ExpiCHO-S cells transiently expressing rat and mouse DR protein were used instead. All DR constructs lack the intracellular DD to avoid apoptosis of transfected cells upon DR(4) activation. IgG1-b12 was used as negative control.

Binder | binding result [1] | EC50 [2] [µg/mL]
B1 | binds | –
B2 | – | 1.84
